Reference: patent publication US20070078092A1 (CUREGENICS, published 2007)
Read-outs that look alike come from different tables or passages of the source. Square brackets hold non-standard residues; d marks the D form. Ends that are not written are not given here. * marks the point of attachment. Cholesteryloxycarbonyl = CC(C)CCC[C@@H](C)[C@H]1CC[C@H]2[C@@H]3CC=C4C[C@@H](OC(=O)*)CC[C@]4(C)[C@H]3CC[C@]12C; Lithocholoyl = C[C@H](CCC(=O)*)[C@H]1CC[C@H]2[C@@H]3CC[C@@H]4C[C@H](O)CC[C@]4(C)[C@H]3CC[C@]12C; Biotin = O=C1N[C@H]2[C@H](CS[C@H]2CCCCC(=O)*)N1; Myristoyl = CCCCCCCCCCCCCC(=O)*; hLeu = CC(C)CC[C@H](N)C(=O)O; Orn = NCCC[C@H](N)C(=O)O; Nva = CCC[C@H](N)C(=O)O; Dap = NC[C@H](N)C(=O)O

Columns and labels:
Assay in all cases: cell-based or functional assay
protein kinase B (PKB) [1] = biological target: protein kinase B (PKB)
protein kinase A (PKA) [2] = biological target: protein kinase A (PKA)
protein kinase B (PKB) [3] = biological target: protein kinase B (PKB); remark: listed apart in the source
protein kinase B (PKB) [4] = biological target: protein kinase B (PKB); remark: listed apart in the source
protein kinase B (PKB) [5] = biological target: protein kinase B (PKB); remark: listed apart in the source
protein kinase A (PKA) [6] = biological target: protein kinase A (PKA); remark: listed apart in the source

Binder	IC50, kinase assay PKB (protein kinase B (PKB) [1])	IC50, kinase assay PKA (protein kinase A (PKA) [2])	IC50, in vitro PKB inhibition (protein kinase B (PKB) [3])	% Inhibition of PKB activity at 1 µM (protein kinase B (PKB) [4])	% Inhibition of PKB activity at 10 µM (protein kinase B (PKB) [4])	IC50, kinase assay PKB (protein kinase B (PKB) [5])	IC50, kinase assay PKA (protein kinase A (PKA) [6])
Lauryl-RPR[Nva]Y[Dap][hLeu]-NH2 [PTR 6160]	8000 nM	50000 nM	–	–	–	–	–
Lithocholoyl-RPR[Nva]YA[hLeu]-NH2 (SMILES CCC[C@H](NC(=O)[C@H](CCCNC(=N)N)NC(=O)[C@@H]1CCCN1C(=O)[C@H](CCCNC(=N)N)NC(=O)CC[C@@H](C)[C@H]1CC[C@H]2[C@@H]3CC[C@@H]4C[C@H](O)CC[C@]4(C)[C@H]3CC[C@]12C)C(=O)N[C@@H](Cc1ccc(O)cc1)C(=O)N[C@@H](C)C(=O)N[C@@H](CCC(C)C)C(N)=O) [PTR 6194]	2000 nM	> 10000 nM	–	–	–	–	–
RPR[Nva]YA[hLeu]-NH2 (not fully specified (N-terminus)) [PTR 6202]	300 nM	> 10000 nM	–	–	–	–	–
Cholesteryloxycarbonyl-GRPR[Nva]YA[hLeu]-NH2 (SMILES CCC[C@H](NC(=O)[C@H](CCCNC(=N)N)NC(=O)[C@@H]1CCCN1C(=O)[C@H](CCCNC(=N)N)NC(=O)CNC(=O)O[C@H]1CC[C@@]2(C)C(=CC[C@H]3[C@@H]4CC[C@H]([C@H](C)CCCC(C)C)[C@@]4(C)CC[C@@H]32)C1)C(=O)N[C@@H](Cc1ccc(O)cc1)C(=O)N[C@@H](C)C(=O)N[C@@H](CCC(C)C)C(N)=O) [PTR 6198]	–	–	–	–	–	500 nM	5000 nM
[dR][dR][dR][dR][dR][dR][dR]RPR[Nva]Y[Dap][hLeu]-NH2 (N-terminus assumed; SMILES CCC[C@H](NC(=O)[C@H](CCCNC(=N)N)NC(=O)[C@@H]1CCCN1C(=O)[C@H](CCCNC(=N)N)NC(=O)[C@@H](CCCNC(=N)N)NC(=O)[C@@H](CCCNC(=N)N)NC(=O)[C@@H](CCCNC(=N)N)NC(=O)[C@@H](CCCNC(=N)N)NC(=O)[C@@H](CCCNC(=N)N)NC(=O)[C@@H](CCCNC(=N)N)NC(=O)[C@H](N)CCCNC(=N)N)C(=O)N[C@@H](Cc1ccc(O)cc1)C(=O)N[C@@H](CN)C(=O)N[C@@H](CCC(C)C)C(N)=O) [MPS ab60025-94]	–	–	400 nM	76%	92%	–	–
{H‑1‑adamantyl}-RPR[Nva]YA[hLeu]-NH2 [PTR 6200]	300 nM	> 10000 nM	–	–	–	–	–
Cholesteryloxycarbonyl-RPR[Orn]E(Aminoethylsulfonamidoisoquinoline)SF-NH2 [PTR 6260]	–	–	–	–	–	1000 nM	> 5000 nM
RQIKIWFQNRRMKWKKRPRXYXX (Nva, Dap, Hol of the 6154 part) [MPS ab60025-2]	–	–	1000 nM	60%	92%	–	–
{S‑carbofluorescin}-RPR[Nva]Y[Dap][hLeu]-NH2 [PTR 6182]	3000 nM	> 10000 nM	–	–	–	–	–
RPR[Nva]Y[Dap][hLeu][dK][dK][dK][dK][dK][dK][dK][dK][dK][dK]-NH2 (N-terminus assumed; SMILES CCC[C@H](NC(=O)[C@H](CCCNC(=N)N)NC(=O)[C@@H]1CCCN1C(=O)[C@@H](N)CCCNC(=N)N)C(=O)N[C@@H](Cc1ccc(O)cc1)C(=O)N[C@@H](CN)C(=O)N[C@@H](CCC(C)C)C(=O)N[C@H](CCCCN)C(=O)N[C@H](CCCCN)C(=O)N[C@H](CCCCN)C(=O)N[C@H](CCCCN)C(=O)N[C@H](CCCCN)C(=O)N[C@H](CCCCN)C(=O)N[C@H](CCCCN)C(=O)N[C@H](CCCCN)C(=O)N[C@H](CCCCN)C(=O)N[C@H](CCCCN)C(N)=O) [MPS ab60025-49]	–	–	40 nM	97%	99%	–	–
Cholesteryloxycarbonyl-RPR[Nva]YA[hLeu]-NH2 (SMILES CCC[C@H](NC(=O)[C@H](CCCNC(=N)N)NC(=O)[C@@H]1CCCN1C(=O)[C@H](CCCNC(=N)N)NC(=O)O[C@H]1CC[C@@]2(C)C(=CC[C@H]3[C@@H]4CC[C@H]([C@H](C)CCCC(C)C)[C@@]4(C)CC[C@@H]32)C1)C(=O)N[C@@H](Cc1ccc(O)cc1)C(=O)N[C@@H](C)C(=O)N[C@@H](CCC(C)C)C(N)=O) [PTR 6196]	–	–	–	–	–	500 nM	5000 nM

More lines, now with the values ahead:

IC50, kinase assay PKB (protein kinase B (PKB) [1])	IC50, kinase assay PKA (protein kinase A (PKA) [2])	IC50, in vitro PKB inhibition (protein kinase B (PKB) [3])	% Inhibition of PKB activity at 1 µM (protein kinase B (PKB) [4])	% Inhibition of PKB activity at 10 µM (protein kinase B (PKB) [4])	IC50, kinase assay PKB (protein kinase B (PKB) [5])	IC50, kinase assay PKA (protein kinase A (PKA) [6])	Binder
–	–	80 nM	93%	98%	–	–	[dK][dK][dK][dK][dK][dK][dK][dK][dK][dK]RPR[Nva]Y[Dap][hLeu]-NH2 (N-terminus assumed; SMILES CCC[C@H](NC(=O)[C@H](CCCNC(=N)N)NC(=O)[C@@H]1CCCN1C(=O)[C@H](CCCNC(=N)N)NC(=O)[C@@H](CCCCN)NC(=O)[C@@H](CCCCN)NC(=O)[C@@H](CCCCN)NC(=O)[C@@H](CCCCN)NC(=O)[C@@H](CCCCN)NC(=O)[C@@H](CCCCN)NC(=O)[C@@H](CCCCN)NC(=O)[C@@H](CCCCN)NC(=O)[C@@H](CCCCN)NC(=O)[C@H](N)CCCCN)C(=O)N[C@@H](Cc1ccc(O)cc1)C(=O)N[C@@H](CN)C(=O)N[C@@H](CCC(C)C)C(N)=O) [MPS ab60025-50]
–	–	–	–	–	3000 nM	10000 nM	{Vitamin E succinate}-RPR[Nva]Y[Dap][hLeu]-NH2 [PTR 6244]
2500 nM	> 10000 nM	–	–	–	–	–	Lithocholoyl-GRPR[Nva]YA[hLeu]-NH2 [PTR 6192]
–	–	800 nM	65%	93%	800 nM	10000 nM	[dR][dR][dR][dR][dR][dR][dR][dR][dR]GRPR[Nva]YA[hLeu]-NH2 (N-terminus assumed; SMILES CCC[C@H](NC(=O)[C@H](CCCNC(=N)N)NC(=O)[C@@H]1CCCN1C(=O)[C@H](CCCNC(=N)N)NC(=O)CNC(=O)[C@@H](CCCNC(=N)N)NC(=O)[C@@H](CCCNC(=N)N)NC(=O)[C@@H](CCCNC(=N)N)NC(=O)[C@@H](CCCNC(=N)N)NC(=O)[C@@H](CCCNC(=N)N)NC(=O)[C@@H](CCCNC(=N)N)NC(=O)[C@@H](CCCNC(=N)N)NC(=O)[C@@H](CCCNC(=N)N)NC(=O)[C@H](N)CCCNC(=N)N)C(=O)N[C@@H](Cc1ccc(O)cc1)C(=O)N[C@@H](C)C(=O)N[C@@H](CCC(C)C)C(N)=O) [PTR 6252]
–	–	200 nM	80%	96%	–	–	RQIKIWFQNRRMKWKKRPRXYAX (Nva, Hol of the 6184 part) [MPS ab60025-4]
–	–	–	–	–	900 nM	20000 nM	Myristoyl-GRPR[Nva]Y[Dap][hLeu]-NH2 (SMILES CCCCCCCCCCCCCC(=O)NCC(=O)N[C@@H](CCCNC(=N)N)C(=O)N1CCC[C@H]1C(=O)N[C@@H](CCCNC(=N)N)C(=O)N[C@@H](CCC)C(=O)N[C@@H](Cc1ccc(O)cc1)C(=O)N[C@@H](CN)C(=O)N[C@@H](CCC(C)C)C(N)=O) [PTR 6180]
1000 nM	> 100000 nM	–	–	–	–	–	Biotin-RPR[Nva]Y[Dap][hLeu]-NH2 [PTR 6158]
5000 nM	8000 nM	–	–	–	–	–	{Galactopyranosyl‑O‑CO}-RPR[Nva]YA[hLeu]-NH2 [PTR 6224]
–	–	400 nM	78%	92%	–	–	[dK][dK][dK][dK][dK][dK][dK][dK]RPR[Nva]Y[Dap][hLeu]-NH2 (N-terminus assumed; SMILES CCC[C@H](NC(=O)[C@H](CCCNC(=N)N)NC(=O)[C@@H]1CCCN1C(=O)[C@H](CCCNC(=N)N)NC(=O)[C@@H](CCCCN)NC(=O)[C@@H](CCCCN)NC(=O)[C@@H](CCCCN)NC(=O)[C@@H](CCCCN)NC(=O)[C@@H](CCCCN)NC(=O)[C@@H](CCCCN)NC(=O)[C@@H](CCCCN)NC(=O)[C@H](N)CCCCN)C(=O)N[C@@H](Cc1ccc(O)cc1)C(=O)N[C@@H](CN)C(=O)N[C@@H](CCC(C)C)C(N)=O) [MPS ab60025-82]
–	–	–	–	–	700 nM	10000 nM	Cholesteryloxycarbonyl-RPR[Nva]Y[Dap][hLeu]-NH2 (SMILES CCC[C@H](NC(=O)[C@H](CCCNC(=N)N)NC(=O)[C@@H]1CCCN1C(=O)[C@H](CCCNC(=N)N)NC(=O)O[C@H]1CC[C@@]2(C)C(=CC[C@H]3[C@@H]4CC[C@H]([C@H](C)CCCC(C)C)[C@@]4(C)CC[C@@H]32)C1)C(=O)N[C@@H](Cc1ccc(O)cc1)C(=O)N[C@@H](CN)C(=O)N[C@@H](CCC(C)C)C(N)=O) [PTR 6164]
